Assays:
[1] = biological target: human intermediate affinity IL-2Rβγ on TF-1β cells (human) (UniProt P14784); assay: cell-based or functional assay
[2] = biological target: FcγR receptors on U937 cells; assay: cell-based ELISA on U937 cells, detection with FITC-conjugated anti-human IgG Fc F(ab')2
[3] = biological target: human IL-2Rαβγ on Kit-225 cells (human) (UniProt P01589); assay: cell-based or functional assay
[4] = biological target: murine high affinity IL-2Rαβγ on CTLL-2 cells (murine) (UniProt P01590); assay: cell-based or functional assay
Chain of UniProt P01590 (P01590 22-268, chain 1 of 3): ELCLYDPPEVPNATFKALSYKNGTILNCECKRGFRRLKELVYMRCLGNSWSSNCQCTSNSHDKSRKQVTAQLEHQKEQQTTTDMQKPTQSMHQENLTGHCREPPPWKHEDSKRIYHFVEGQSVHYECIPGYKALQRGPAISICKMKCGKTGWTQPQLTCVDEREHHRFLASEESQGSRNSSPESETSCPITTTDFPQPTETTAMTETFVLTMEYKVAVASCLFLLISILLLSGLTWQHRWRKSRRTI
Chain of UniProt P01590 (P16297 27-539, chain 2 of 3, further chain): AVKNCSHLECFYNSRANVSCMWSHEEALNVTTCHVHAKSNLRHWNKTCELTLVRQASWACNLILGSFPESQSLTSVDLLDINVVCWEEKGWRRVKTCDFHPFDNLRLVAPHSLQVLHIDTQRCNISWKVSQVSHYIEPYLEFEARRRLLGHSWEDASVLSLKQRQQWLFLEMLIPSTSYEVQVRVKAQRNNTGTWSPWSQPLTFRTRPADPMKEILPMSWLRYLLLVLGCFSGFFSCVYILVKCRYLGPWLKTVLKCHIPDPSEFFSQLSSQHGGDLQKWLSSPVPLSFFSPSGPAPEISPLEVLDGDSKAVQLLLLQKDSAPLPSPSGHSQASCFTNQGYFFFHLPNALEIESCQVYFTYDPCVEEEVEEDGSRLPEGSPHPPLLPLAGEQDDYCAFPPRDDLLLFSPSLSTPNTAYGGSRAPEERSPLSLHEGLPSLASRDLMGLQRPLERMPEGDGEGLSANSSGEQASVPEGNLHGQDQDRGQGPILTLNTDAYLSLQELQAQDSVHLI
Chain of UniProt P01590 (P34902 23-369, chain 3 of 3, further chain): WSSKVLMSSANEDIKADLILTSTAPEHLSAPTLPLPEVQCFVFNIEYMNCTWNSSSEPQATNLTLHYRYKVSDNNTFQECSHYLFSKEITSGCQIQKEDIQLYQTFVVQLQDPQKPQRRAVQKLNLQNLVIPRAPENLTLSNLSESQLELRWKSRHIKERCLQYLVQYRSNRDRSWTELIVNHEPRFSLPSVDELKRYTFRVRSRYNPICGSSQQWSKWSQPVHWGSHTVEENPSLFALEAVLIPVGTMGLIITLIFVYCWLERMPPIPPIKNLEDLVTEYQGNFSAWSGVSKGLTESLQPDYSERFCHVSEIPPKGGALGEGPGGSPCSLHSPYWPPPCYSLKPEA

Chain of UniProt P14784 (P14784 27-551, chain 1 of 2): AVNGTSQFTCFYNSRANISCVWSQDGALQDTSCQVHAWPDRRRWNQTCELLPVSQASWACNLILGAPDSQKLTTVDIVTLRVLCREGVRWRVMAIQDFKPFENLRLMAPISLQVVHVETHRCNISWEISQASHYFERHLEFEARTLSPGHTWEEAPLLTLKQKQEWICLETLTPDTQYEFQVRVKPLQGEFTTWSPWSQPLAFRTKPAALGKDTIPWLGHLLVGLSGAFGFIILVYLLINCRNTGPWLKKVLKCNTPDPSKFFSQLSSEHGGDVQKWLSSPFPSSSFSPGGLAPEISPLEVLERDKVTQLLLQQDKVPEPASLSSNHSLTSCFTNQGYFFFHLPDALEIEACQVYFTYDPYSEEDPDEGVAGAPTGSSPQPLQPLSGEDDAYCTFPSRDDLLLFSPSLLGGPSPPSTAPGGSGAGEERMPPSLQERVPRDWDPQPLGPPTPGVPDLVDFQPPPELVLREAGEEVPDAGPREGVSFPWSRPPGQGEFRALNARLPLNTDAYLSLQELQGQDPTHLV
Chain of UniProt P14784 (P31785 23-369, chain 2 of 2, further chain): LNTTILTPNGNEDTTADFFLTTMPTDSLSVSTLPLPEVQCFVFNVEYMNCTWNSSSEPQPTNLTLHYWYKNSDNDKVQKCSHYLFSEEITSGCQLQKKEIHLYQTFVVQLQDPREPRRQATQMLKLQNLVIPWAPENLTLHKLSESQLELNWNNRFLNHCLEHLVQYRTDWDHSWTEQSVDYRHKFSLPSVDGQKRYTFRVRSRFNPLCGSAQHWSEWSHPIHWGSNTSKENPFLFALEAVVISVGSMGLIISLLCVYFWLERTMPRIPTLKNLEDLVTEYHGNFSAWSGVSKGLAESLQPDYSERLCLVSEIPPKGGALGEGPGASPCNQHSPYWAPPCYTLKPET
Chain of UniProt P01589 (P01589 22-272, chain 1 of 3): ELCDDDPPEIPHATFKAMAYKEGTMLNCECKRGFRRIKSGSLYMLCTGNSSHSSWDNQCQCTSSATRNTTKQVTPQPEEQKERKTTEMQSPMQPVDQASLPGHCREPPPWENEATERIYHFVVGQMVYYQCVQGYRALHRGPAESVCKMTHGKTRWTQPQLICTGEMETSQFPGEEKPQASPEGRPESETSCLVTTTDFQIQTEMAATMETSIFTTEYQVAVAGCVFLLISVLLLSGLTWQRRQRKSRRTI
Chain of UniProt P01589 (P14784 27-551, chain 2 of 3, further chain): as the sequence (P14784 27-551, chain 1 of 2) above
Chain of UniProt P01589 (P31785 23-369, chain 3 of 3, further chain): as the sequence (P31785 23-369, chain 2 of 2, further chain) above

| Substance | ED50 Ratio = ED50 [TF1-β]/ED50 [CTLL-2], cell proliferation [1] | ED50 Ratio TF-1β/Kit-225, cell proliferation [1] | ED50, proliferation of CTLL-2 cells [4] | further results |
| --- | --- | --- | --- | --- |
| 14.18-IL2 | 0.07 |  |  |  |
| N-Glycanase treated 14.18-IL2 | 0.21 |  |  | fold increase of the ED50 ratio (TF-1β/CTLL-2) compared to untreated 14.18-IL2 [1]: 3 fold |
| N-Glycanase treated huKS-IL2 | 0.45 |  |  | fold increase of the ED50 Ratio (TF-1β/CTLL-2) relative to huKS-IL2 [1]: 2 fold |
| huKS-IL2 | 0.11 | 4 |  | fold change of the ED50 ratio (TF-1β/CTLL-2) against free IL-2 [1]: 5 fold |
| huKS-ala-IL2 | 0.17 | 10.4 | 5 | EC50 [2]: 5 µg/mL; ED50, proliferation of Kit-225 cells [3]: 0.08 |
| huKS-ala-IL2(N88R) | 2300 | 52000 | 3 | shift in selectivity (ED50 ratio TF-1β/CTLL-2) relative to KS-ala-IL2 [1]: 20000 fold; ED50, proliferation of Kit 225 cells [3]: 0.13 |

— US20030166163A1
